Reference: publication PMC4434323

What was measured:
[1] = target: T1, Y61A9LA.9 (Y61A9LA.9) (Caenorhabditis elegans) (UniProt Q9N312)
T1 sequence: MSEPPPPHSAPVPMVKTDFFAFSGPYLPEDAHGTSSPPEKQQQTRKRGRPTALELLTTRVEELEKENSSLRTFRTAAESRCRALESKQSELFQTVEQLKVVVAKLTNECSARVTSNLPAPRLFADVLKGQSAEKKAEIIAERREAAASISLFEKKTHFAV

[2] = tested on: T2, slr-2 (Y59A8B.13) (Caenorhabditis elegans)
T2 sequence: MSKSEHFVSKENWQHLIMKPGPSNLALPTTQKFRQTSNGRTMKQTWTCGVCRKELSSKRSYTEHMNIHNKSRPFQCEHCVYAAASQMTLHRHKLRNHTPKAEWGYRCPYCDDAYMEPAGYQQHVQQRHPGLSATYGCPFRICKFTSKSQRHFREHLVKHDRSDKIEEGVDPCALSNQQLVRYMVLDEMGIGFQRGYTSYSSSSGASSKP

[3] = target: T3, dmd-6 (F13G11.1) (Caenorhabditis elegans) (UniProt O62159)
T3 sequence: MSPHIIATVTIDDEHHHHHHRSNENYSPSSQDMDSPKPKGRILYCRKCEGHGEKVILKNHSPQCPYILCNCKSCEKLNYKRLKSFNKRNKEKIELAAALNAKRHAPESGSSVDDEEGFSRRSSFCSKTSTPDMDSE

[4] = target: T4, ceh-26 (K12H4.1) (Caenorhabditis elegans) (UniProt P34522)
T4 sequence: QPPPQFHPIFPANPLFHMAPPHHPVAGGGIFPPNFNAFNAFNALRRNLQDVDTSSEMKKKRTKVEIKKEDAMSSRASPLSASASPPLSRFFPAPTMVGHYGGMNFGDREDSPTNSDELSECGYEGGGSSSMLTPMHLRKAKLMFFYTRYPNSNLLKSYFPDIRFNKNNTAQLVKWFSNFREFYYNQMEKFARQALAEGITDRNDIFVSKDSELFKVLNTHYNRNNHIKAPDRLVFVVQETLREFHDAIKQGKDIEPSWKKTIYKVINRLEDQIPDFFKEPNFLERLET

[5] = target: T5, ceh-23 (ZK652.5) (Caenorhabditis elegans) (UniProt P34663)
T5 sequence: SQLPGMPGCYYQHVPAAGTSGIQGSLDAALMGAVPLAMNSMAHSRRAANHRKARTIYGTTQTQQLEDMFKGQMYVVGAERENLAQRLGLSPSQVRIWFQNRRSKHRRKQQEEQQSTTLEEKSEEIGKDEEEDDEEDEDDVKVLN

[6] = target: T6, eyg-1 (Y53C12C.1) (Caenorhabditis elegans) (UniProt O01996)
T6 sequence: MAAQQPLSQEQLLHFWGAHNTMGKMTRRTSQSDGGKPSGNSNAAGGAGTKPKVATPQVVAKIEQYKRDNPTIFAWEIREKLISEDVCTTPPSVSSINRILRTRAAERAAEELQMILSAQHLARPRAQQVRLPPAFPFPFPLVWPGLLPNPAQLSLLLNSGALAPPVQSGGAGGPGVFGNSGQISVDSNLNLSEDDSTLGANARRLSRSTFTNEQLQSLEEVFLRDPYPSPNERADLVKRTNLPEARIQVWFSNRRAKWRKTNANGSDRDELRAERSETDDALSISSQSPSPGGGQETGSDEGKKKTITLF

[7] = target: T7, pax-2 (K06B9.5) (Caenorhabditis elegans) (UniProt Q21263)
T7 sequence: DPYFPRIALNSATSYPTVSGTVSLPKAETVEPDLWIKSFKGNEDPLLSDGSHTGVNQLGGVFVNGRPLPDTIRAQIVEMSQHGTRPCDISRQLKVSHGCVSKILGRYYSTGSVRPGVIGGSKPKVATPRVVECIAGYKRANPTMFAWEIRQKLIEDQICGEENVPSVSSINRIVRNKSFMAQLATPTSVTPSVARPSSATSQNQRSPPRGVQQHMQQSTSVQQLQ

[8] = target: sptf-3 (Y40B1A.4) (Caenorhabditis elegans) (UniProt Q9XW26)
[9] = target: T8, ZK337.2 (ZK337.2) (Caenorhabditis elegans) (UniProt O46016)
T8 sequence: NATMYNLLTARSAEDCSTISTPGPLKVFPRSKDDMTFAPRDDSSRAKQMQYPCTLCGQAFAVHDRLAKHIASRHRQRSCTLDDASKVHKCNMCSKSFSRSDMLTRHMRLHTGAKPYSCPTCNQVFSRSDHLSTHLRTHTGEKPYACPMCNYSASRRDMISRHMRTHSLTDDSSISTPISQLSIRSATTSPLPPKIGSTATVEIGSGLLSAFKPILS

[10] = target: egrh-1 (C27C12.2) (Caenorhabditis elegans) (UniProt Q18250)
[11] = target: klf-3 (F54H5.4) (Caenorhabditis elegans) (UniProt Q65ZG6)
[12] = target: ZC328.2 (ZC328.2) (Caenorhabditis elegans) (UniProt O02050)
[13] = target: T9, ceh-51 (Y80D3A.3) (Caenorhabditis elegans) (UniProt Q9U1R1)
T9 sequence: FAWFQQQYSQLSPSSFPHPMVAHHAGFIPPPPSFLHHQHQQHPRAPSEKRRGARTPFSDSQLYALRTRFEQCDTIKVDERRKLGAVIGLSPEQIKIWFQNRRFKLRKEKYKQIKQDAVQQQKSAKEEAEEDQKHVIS

[14] = target: T10, die-1 (C18D1.1) (Caenorhabditis elegans) (UniProt A0A131MCR4)
T10 sequence: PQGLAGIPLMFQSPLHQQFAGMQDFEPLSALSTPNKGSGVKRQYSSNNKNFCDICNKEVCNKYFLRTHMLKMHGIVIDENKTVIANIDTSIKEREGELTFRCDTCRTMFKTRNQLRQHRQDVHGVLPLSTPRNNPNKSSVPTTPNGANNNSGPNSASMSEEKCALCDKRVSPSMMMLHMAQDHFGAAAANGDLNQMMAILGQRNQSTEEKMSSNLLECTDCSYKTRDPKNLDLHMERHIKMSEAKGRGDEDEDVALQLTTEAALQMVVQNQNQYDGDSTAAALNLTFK

Sequence of sptf-3 (Y40B1A.4) (Caenorhabditis elegans) (Q9XW26 266-412): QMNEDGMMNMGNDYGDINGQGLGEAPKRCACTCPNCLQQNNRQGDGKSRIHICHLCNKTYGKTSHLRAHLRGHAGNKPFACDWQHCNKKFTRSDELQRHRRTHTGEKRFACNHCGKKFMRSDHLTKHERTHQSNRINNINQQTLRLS
Sequence of egrh-1 (C27C12.2) (Caenorhabditis elegans) (Q18250 324-461): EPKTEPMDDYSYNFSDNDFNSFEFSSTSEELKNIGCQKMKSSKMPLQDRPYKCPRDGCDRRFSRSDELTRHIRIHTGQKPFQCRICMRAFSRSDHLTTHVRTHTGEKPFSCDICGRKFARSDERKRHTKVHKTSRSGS
Sequence of ZC328.2 (ZC328.2) (Caenorhabditis elegans) (O02050 entry or part of it): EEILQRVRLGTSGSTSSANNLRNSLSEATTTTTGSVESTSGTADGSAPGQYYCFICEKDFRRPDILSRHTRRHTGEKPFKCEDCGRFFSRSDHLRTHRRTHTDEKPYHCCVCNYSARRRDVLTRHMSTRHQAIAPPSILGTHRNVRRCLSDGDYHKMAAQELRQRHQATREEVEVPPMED
Sequence of klf-3 (F54H5.4) (Caenorhabditis elegans) (Q65ZG6 180-315): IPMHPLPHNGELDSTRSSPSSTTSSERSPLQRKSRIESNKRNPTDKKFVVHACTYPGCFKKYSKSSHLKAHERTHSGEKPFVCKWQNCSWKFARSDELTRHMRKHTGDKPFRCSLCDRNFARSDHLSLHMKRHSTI

## AAAATAAT (double strand) [8-mer AAAATAAT]
[1]
  binding signal (PBM E-score (-0.5 to 0.5)): 0.451

## AAACTGCA (double strand) [8-mer AAACTGCA]
[2]
  binding signal (PBM E-score (-0.5 to 0.5)): 0.475

## AAATAAAT (double strand) [8-mer AAATAAAT]
[1]
  binding signal (PBM E-score (-0.5 to 0.5)): 0.452

## AAATAATT (double strand) [8-mer AAATAATT]
[1]
  binding signal (PBM E-score (-0.5 to 0.5)): 0.457

## AAATATAT (double strand) [8-mer AAATATAT]
[1]
  binding signal (PBM E-score (-0.5 to 0.5)): 0.452
[3]
  binding signal (PBM E-score (-0.5 to 0.5)): 0.48

## AACATCTT (double strand) [8-mer AACATCTT]
[4]
  binding signal (PBM E-score (-0.5 to 0.5)): 0.457

## AACGTCTT (double strand) [8-mer AACGTCTT]
[4]
  binding signal (PBM E-score (-0.5 to 0.5)): 0.48

## AACTGCAA (double strand) [8-mer AACTGCAA]
[2]
  binding signal (PBM E-score (-0.5 to 0.5)): 0.495

## AAGAAAGT (double strand) [8-mer AAGAAAGT]
[4]
  binding signal (PBM E-score (-0.5 to 0.5)): 0.456

## AAGACATT (double strand) [8-mer AAGACATT]
[4]
  binding signal (PBM E-score (-0.5 to 0.5)): 0.458

## AAGATCTT (double strand) [8-mer AAGATCTT]
[4]
  binding signal (PBM E-score (-0.5 to 0.5)): 0.457

## AATAATAA (double strand) [8-mer AATAATAA]
[1]
  binding signal (PBM E-score (-0.5 to 0.5)): 0.461

## AATATATT (double strand) [8-mer AATATATT]
[1]
  binding signal (PBM E-score (-0.5 to 0.5)): 0.465

## AATATTAA (double strand) [8-mer AATATTAA]
[1]
  binding signal (PBM E-score (-0.5 to 0.5)): 0.455

## AATTAATT (double strand) [8-mer AATTAATT]
[1]
  binding signal (PBM E-score (-0.5 to 0.5)): 0.454
[5]
  binding signal (PBM E-score (-0.5 to 0.5)): 0.492
[6]
  binding signal (PBM E-score (-0.5 to 0.5)): 0.489

## ACCATGAC (double strand) [8-mer ACCATGAC]
[7]
  binding signal (PBM E-score (-0.5 to 0.5)): 0.454

## ACCGCCCC (double strand) [8-mer ACCGCCCC]
[8]
  binding signal (PBM E-score (-0.5 to 0.5)): 0.476

## ACCGTGAC (double strand) [8-mer ACCGTGAC]
[7]
  binding signal (PBM E-score (-0.5 to 0.5)): 0.495

## ACGCCCAC (double strand) [8-mer ACGCCCAC]
[9]
  binding signal (PBM E-score (-0.5 to 0.5)): 0.492
[10]
  binding signal (PBM E-score (-0.5 to 0.5)): 0.494
[11]
  binding signal (PBM E-score (-0.5 to 0.5)): 0.48
[8]
  binding signal (PBM E-score (-0.5 to 0.5)): 0.454

## ACGCCCCC (double strand) [8-mer ACGCCCCC]
[12]
  binding signal (PBM E-score (-0.5 to 0.5)): 0.486
[9]
  binding signal (PBM E-score (-0.5 to 0.5)): 0.495
[10]
  binding signal (PBM E-score (-0.5 to 0.5)): 0.495
[8]
  binding signal (PBM E-score (-0.5 to 0.5)): 0.49

## ACGCCCCT (double strand) [8-mer ACGCCCCT]
[8]
  binding signal (PBM E-score (-0.5 to 0.5)): 0.452

## ACTGCAAA (double strand) [8-mer ACTGCAAA]
[2]
  binding signal (PBM E-score (-0.5 to 0.5)): 0.487

## AGACTGCA (double strand) [8-mer AGACTGCA]
[2]
  binding signal (PBM E-score (-0.5 to 0.5)): 0.469

## AGCGTGAC (double strand) [8-mer AGCGTGAC]
[7]
  binding signal (PBM E-score (-0.5 to 0.5)): 0.488

## AGGGGCGG (double strand) [8-mer AGGGGCGG]
[8]
  binding signal (PBM E-score (-0.5 to 0.5)): 0.494

## ATATTAAT (double strand) [8-mer ATATTAAT]
[1]
  binding signal (PBM E-score (-0.5 to 0.5)): 0.453
[13]
  binding signal (PBM E-score (-0.5 to 0.5)): 0.467

## ATGGGCGG (double strand) [8-mer ATGGGCGG]
[8]
  binding signal (PBM E-score (-0.5 to 0.5)): 0.456

## ATTTAAAT (double strand) [8-mer ATTTAAAT]
[1]
  binding signal (PBM E-score (-0.5 to 0.5)): 0.47
[14]
  binding signal (PBM E-score (-0.5 to 0.5)): 0.477

## CAAGAAAA (double strand) [8-mer CAAGAAAA]
[4]
  binding signal (PBM E-score (-0.5 to 0.5)): 0.469

## CACGCCCC (double strand) [8-mer CACGCCCC]
[8]
  binding signal (PBM E-score (-0.5 to 0.5)): 0.473

## CCAAGAAA (double strand) [8-mer CCAAGAAA]
[4]
  binding signal (PBM E-score (-0.5 to 0.5)): 0.472

## CCGCCCAC (double strand) [8-mer CCGCCCAC]
[12]
  binding signal (PBM E-score (-0.5 to 0.5)): 0.489
[9]
  binding signal (PBM E-score (-0.5 to 0.5)): 0.494
[10]
  binding signal (PBM E-score (-0.5 to 0.5)): 0.494
[8]
  binding signal (PBM E-score (-0.5 to 0.5)): 0.489

## CCGTGACC (double strand) [8-mer CCGTGACC]
[7]
  binding signal (PBM E-score (-0.5 to 0.5)): 0.484

## CCGTGACG (double strand) [8-mer CCGTGACG]
[7]
  binding signal (PBM E-score (-0.5 to 0.5)): 0.489

## CGAAGAAA (double strand) [8-mer CGAAGAAA]
[4]
  binding signal (PBM E-score (-0.5 to 0.5)): 0.453

## CGGTCACG (double strand) [8-mer CGGTCACG]
[7]
  binding signal (PBM E-score (-0.5 to 0.5)): 0.473

## CGTCACGC (double strand) [8-mer CGTCACGC]
[7]
  binding signal (PBM E-score (-0.5 to 0.5)): 0.488

## CGTCTTGA (double strand) [8-mer CGTCTTGA]
[4]
  binding signal (PBM E-score (-0.5 to 0.5)): 0.454

## CGTGACCA (double strand) [8-mer CGTGACCA]
[7]
  binding signal (PBM E-score (-0.5 to 0.5)): 0.479

## CGTGACGA (double strand) [8-mer CGTGACGA]
[7]
  binding signal (PBM E-score (-0.5 to 0.5)): 0.461

## CTCCGCCC (double strand) [8-mer CTCCGCCC]
[8]
  binding signal (PBM E-score (-0.5 to 0.5)): 0.451

## GAACTACA (double strand) [8-mer GAACTACA]
[2]
  binding signal (PBM E-score (-0.5 to 0.5)): 0.459

## GAACTGCA (double strand) [8-mer GAACTGCA]
[2]
  binding signal (PBM E-score (-0.5 to 0.5)): 0.494

## GACTGCAA (double strand) [8-mer GACTGCAA]
[2]
  binding signal (PBM E-score (-0.5 to 0.5)): 0.491

## GCGTGACC (double strand) [8-mer GCGTGACC]
[7]
  binding signal (PBM E-score (-0.5 to 0.5)): 0.486

## GGACTGCA (double strand) [8-mer GGACTGCA]
[2]
  binding signal (PBM E-score (-0.5 to 0.5)): 0.476

## GGCGTGAC (double strand) [8-mer GGCGTGAC]
[7]
  binding signal (PBM E-score (-0.5 to 0.5)): 0.468

## GGGGCGGA (double strand) [8-mer GGGGCGGA]
[8]
  binding signal (PBM E-score (-0.5 to 0.5)): 0.475

## GGGGCGTA (double strand) [8-mer GGGGCGTA]
[8]
  binding signal (PBM E-score (-0.5 to 0.5)): 0.462

## GTCACGCA (double strand) [8-mer GTCACGCA]
[7]
  binding signal (PBM E-score (-0.5 to 0.5)): 0.481

## GTCACGGA (double strand) [8-mer GTCACGGA]
[7]
  binding signal (PBM E-score (-0.5 to 0.5)): 0.453

## TAAAATAA (double strand) [8-mer TAAAATAA]
[1]
  binding signal (PBM E-score (-0.5 to 0.5)): 0.453

## TCAAGAAA (double strand) [8-mer TCAAGAAA]
[4]
  binding signal (PBM E-score (-0.5 to 0.5)): 0.462

## TCTTAAGA (double strand) [8-mer TCTTAAGA]
[4]
  binding signal (PBM E-score (-0.5 to 0.5)): 0.482

## TGAAGAAA (double strand) [8-mer TGAAGAAA]
[4]
  binding signal (PBM E-score (-0.5 to 0.5)): 0.453
